{"source": "the supplement of paper PMC9170038", "test_system": "MS2 coat protein", "experiment": "apparent KD of MS2 coat protein; designed switch direction (-1 OFF switch, 1 ON switch): 1; higher = weaker reporter binding", "in_short": "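For each design, the apparent KD is the median over clusters of curves fitted to normalised cluster fluorescence. Clusters held RNA switches with common flanks, transcribed on Illumina chips by stalled E. coli RNA polymerase. These were titrated with SNAP-549-labelled MS2 coat protein, doubling from 0.7 or 1.5 nM to 3 µM, without input, with 200 uM small-molecule ligand, or with an oligonucleotide input.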", "key": {"[1]": {"conditions": "input ligand: microRNA oligo, concentration not stated"}}, "data": [{"sequence": "AUUAUUUAUGCAGGAUAUGAUUAACAUGAGGAUCACCCAUGUGGUGUUGUGAGUAAGGAGAGUGAUCAGAAGGGCAUUUUAUUU [JMF's solution 50] (Eterna round: R96, puzzle: Same State NG 2)", "values": [{"measurement": "apparent KD of MS2 coat protein", "setting": "input ligand: FMN 200 uM", "value": 1560, "unit": "nM"}, {"measurement": "apparent KD of MS2 coat protein", "setting": "[1]", "value": 522, "unit": "nM"}, {"measurement": "apparent KD of MS2 coat protein", "setting": "input ligand: none", "value": 571, "unit": "nM"}]}, {"sequence": "AUUAUUUAUGCAGGAUAUGAUUAACAUGAGGAUCACCCAUGUGGUGUUGUGAGUAAGGAGAGUGAUCAGAAGGGCAUUUUGUUU [JMF's solution 51] (Eterna round: R96, puzzle: Same State NG 2)", "values": [{"measurement": "apparent KD of MS2 coat protein", "setting": "input ligand: FMN 200 uM", "value": 794, "unit": "nM"}, {"measurement": "apparent KD of MS2 coat protein", "setting": "[1]", "value": 321, "unit": "nM"}, {"measurement": "apparent KD of MS2 coat protein", "setting": "input ligand: none", "value": 451, "unit": "nM"}]}, {"sequence": "AUUAUUUAUGCAGGAUAUGAUUAACAUGAGGAUCACCCAUGUGGUGUUGUGAGUAAGGAGAGUGAUCAGAAGGGCAUUUUUAUU [JMF's solution 52] (Eterna round: R96, puzzle: Same State NG 2)", "values": [{"measurement": "apparent KD of MS2 coat protein", "setting": "input ligand: FMN 200 uM", "value": 627, "unit": "nM"}, {"measurement": "apparent KD of MS2 coat protein", "setting": "[1]", "value": 493, "unit": "nM"}, {"measurement": "apparent KD of MS2 coat protein", "setting": "input ligand: none", "value": 568, "unit": "nM"}]}, {"sequence": "AUUAUUUAUGCAGGAUAUGAUUAACAUGAGGAUCACCCAUGUGGUGUUGUGAGUAAGGAGAGUGAUCAGAAGGGCAUUUUUGUU [JMF's solution 53] (Eterna round: R96, puzzle: Same State NG 2)", "values": [{"measurement": "apparent KD of MS2 coat protein", "setting": "input ligand: FMN 200 uM", "value": 992, "unit": "nM"}, {"measurement": "apparent KD of MS2 coat protein", "setting": "[1]", "value": 438, "unit": "nM"}, {"measurement": "apparent KD of MS2 coat protein", "setting": "input ligand: none", "value": 657, "unit": "nM"}]}, {"sequence": "AUUAUUUCAUGAGGAUAUGGCACCUUAUUGGUGCCAGAAGGCAUGUCAUUAGACAUGAGGAUCACCCAUGUAUUAUAUUAUAUA [Fiskers NG1ss - 13] (Eterna round: R96, puzzle: Same State NG 1)", "values": [{"measurement": "apparent KD of MS2 coat protein", "setting": "input ligand: FMN 200 uM", "value": 41.5, "unit": "nM"}, {"measurement": "apparent KD of MS2 coat protein", "setting": "[1]", "value": 392, "unit": "nM"}, {"measurement": "apparent KD of MS2 coat protein", "setting": "input ligand: none", "value": 534, "unit": "nM"}]}, {"sequence": "AUUAUUUGUGCAGGAUAUGAUUAACAUGAGGAUCACCCAUGUGGUGUUGUGAGUAAGGAGAGUGAUCAGAAGGGCAUUUUUUUU [JMF's solution 61] (Eterna round: R96, puzzle: Same State NG 2)", "values": [{"measurement": "apparent KD of MS2 coat protein", "setting": "input ligand: FMN 200 uM", "value": 590, "unit": "nM"}, {"measurement": "apparent KD of MS2 coat protein", "setting": "[1]", "value": 476, "unit": "nM"}, {"measurement": "apparent KD of MS2 coat protein", "setting": "input ligand: none", "value": 478, "unit": "nM"}]}, {"sequence": "AUUCGUUUGAUAGGAUAUCACUUUACAUGAGGAUCACCCAUGUUCACCACGCUGGUCCCUUAUACUGAGAAGGAUCUUGAUGAC [JR_SSNG2_Sub008] (Eterna round: R96, puzzle: Same State NG 2)", "values": [{"measurement": "apparent KD of MS2 coat protein", "setting": "input ligand: FMN 200 uM", "value": 107, "unit": "nM"}, {"measurement": "apparent KD of MS2 coat protein", "setting": "[1]", "value": 64.5, "unit": "nM"}, {"measurement": "apparent KD of MS2 coat protein", "setting": "input ligand: none", "value": 95.7, "unit": "nM"}]}, {"sequence": "AUUGCUUACGCAGGAUAUGAUGCGAAAAUUGCGUCAGAAGGGUGAAGUGACUCAUUGCAACAGGACAUGAGGAUCACCCAUGUC [SameState NG1 #90] (Eterna round: R96, puzzle: Same State NG 1)", "values": [{"measurement": "apparent KD of MS2 coat protein", "setting": "input ligand: FMN 200 uM", "value": 184, "unit": "nM"}, {"measurement": "apparent KD of MS2 coat protein", "setting": "[1]", "value": 305, "unit": "nM"}, {"measurement": "apparent KD of MS2 coat protein", "setting": "input ligand: none", "value": 708, "unit": "nM"}]}, {"sequence": "AUUUUCAAUGCAGGAUAUGAUUAACAUGAGGAUCACCCAUGUGGUGUUGUGAGUAAGGAGAGUGAUCAGAAGGGCAUUUUUUUU [JMF's solution 97] (Eterna round: R96, puzzle: Same State NG 2)", "values": [{"measurement": "apparent KD of MS2 coat protein", "setting": "input ligand: FMN 200 uM", "value": 428, "unit": "nM"}, {"measurement": "apparent KD of MS2 coat protein", "setting": "[1]", "value": 371, "unit": "nM"}, {"measurement": "apparent KD of MS2 coat protein", "setting": "input ligand: none", "value": 486, "unit": "nM"}]}, {"sequence": "AUUUUUAAUGCAGGAUAUGAUUAACAUGAGGAUCACCCAUGUGGUGUUGUGAGUAAGGAGAGUGAUCAGAAGGGCAUUUUUUAU [JMF's solution 86] (Eterna round: R96, puzzle: Same State NG 2)", "values": [{"measurement": "apparent KD of MS2 coat protein", "setting": "input ligand: FMN 200 uM", "value": 453, "unit": "nM"}, {"measurement": "apparent KD of MS2 coat protein", "setting": "[1]", "value": 702, "unit": "nM"}, {"measurement": "apparent KD of MS2 coat protein", "setting": "input ligand: none", "value": 441, "unit": "nM"}]}, {"sequence": "AUUUUUAAUGCAGGAUAUGAUUAACAUGAGGAUCACCCAUGUGGUGUUGUGAGUAAGGAGAGUGAUCAGAAGGGCAUUUUUUCA [SS-NG2-LRO01] (Eterna round: R96, puzzle: Same State NG 2)", "values": [{"measurement": "apparent KD of MS2 coat protein", "setting": "input ligand: FMN 200 uM", "value": 838, "unit": "nM"}, {"measurement": "apparent KD of MS2 coat protein", "setting": "[1]", "value": 495, "unit": "nM"}, {"measurement": "apparent KD of MS2 coat protein", "setting": "input ligand: none", "value": 533, "unit": "nM"}]}, {"sequence": "CAAGCUUGGGUCUUCCCGCUCGUCUACAAACAUGAGGAUCACCCAUGUAUACUCUUCGCAUCAAUUCUAUCUCUUGG [Onraenbi] (Eterna round: R96, puzzle: Sensor for hsa-mir-208a)", "values": [{"measurement": "apparent KD of MS2 coat protein", "setting": "input ligand: FMN 200 uM", "value": 176, "unit": "nM"}, {"measurement": "apparent KD of MS2 coat protein", "setting": "[1]", "value": 23.1, "unit": "nM"}, {"measurement": "apparent KD of MS2 coat protein", "setting": "input ligand: none", "value": 163, "unit": "nM"}]}]}
